Results from US20240368668A1, “SUBSTRATES AND BIOMARKERS OF ADAMTS7” (The Broad Institute, Inc., priority 2021, published 2024).

Target: T1, mouse ADAMTS7 (Mus musculus, UniProt Q68SA9)
T1 construct: Full-length mouse Adamts7 1-1857 (Uniprot Q68SA9, WT or E373Q catalytic mutant); expressed in transfected cells; host or cells: Human Coronary Artery Smooth Muscle Cells (HCA-SMC, Lonza), adenovirus 50 MOI
T1 sequence (Q68SA9 221-1657): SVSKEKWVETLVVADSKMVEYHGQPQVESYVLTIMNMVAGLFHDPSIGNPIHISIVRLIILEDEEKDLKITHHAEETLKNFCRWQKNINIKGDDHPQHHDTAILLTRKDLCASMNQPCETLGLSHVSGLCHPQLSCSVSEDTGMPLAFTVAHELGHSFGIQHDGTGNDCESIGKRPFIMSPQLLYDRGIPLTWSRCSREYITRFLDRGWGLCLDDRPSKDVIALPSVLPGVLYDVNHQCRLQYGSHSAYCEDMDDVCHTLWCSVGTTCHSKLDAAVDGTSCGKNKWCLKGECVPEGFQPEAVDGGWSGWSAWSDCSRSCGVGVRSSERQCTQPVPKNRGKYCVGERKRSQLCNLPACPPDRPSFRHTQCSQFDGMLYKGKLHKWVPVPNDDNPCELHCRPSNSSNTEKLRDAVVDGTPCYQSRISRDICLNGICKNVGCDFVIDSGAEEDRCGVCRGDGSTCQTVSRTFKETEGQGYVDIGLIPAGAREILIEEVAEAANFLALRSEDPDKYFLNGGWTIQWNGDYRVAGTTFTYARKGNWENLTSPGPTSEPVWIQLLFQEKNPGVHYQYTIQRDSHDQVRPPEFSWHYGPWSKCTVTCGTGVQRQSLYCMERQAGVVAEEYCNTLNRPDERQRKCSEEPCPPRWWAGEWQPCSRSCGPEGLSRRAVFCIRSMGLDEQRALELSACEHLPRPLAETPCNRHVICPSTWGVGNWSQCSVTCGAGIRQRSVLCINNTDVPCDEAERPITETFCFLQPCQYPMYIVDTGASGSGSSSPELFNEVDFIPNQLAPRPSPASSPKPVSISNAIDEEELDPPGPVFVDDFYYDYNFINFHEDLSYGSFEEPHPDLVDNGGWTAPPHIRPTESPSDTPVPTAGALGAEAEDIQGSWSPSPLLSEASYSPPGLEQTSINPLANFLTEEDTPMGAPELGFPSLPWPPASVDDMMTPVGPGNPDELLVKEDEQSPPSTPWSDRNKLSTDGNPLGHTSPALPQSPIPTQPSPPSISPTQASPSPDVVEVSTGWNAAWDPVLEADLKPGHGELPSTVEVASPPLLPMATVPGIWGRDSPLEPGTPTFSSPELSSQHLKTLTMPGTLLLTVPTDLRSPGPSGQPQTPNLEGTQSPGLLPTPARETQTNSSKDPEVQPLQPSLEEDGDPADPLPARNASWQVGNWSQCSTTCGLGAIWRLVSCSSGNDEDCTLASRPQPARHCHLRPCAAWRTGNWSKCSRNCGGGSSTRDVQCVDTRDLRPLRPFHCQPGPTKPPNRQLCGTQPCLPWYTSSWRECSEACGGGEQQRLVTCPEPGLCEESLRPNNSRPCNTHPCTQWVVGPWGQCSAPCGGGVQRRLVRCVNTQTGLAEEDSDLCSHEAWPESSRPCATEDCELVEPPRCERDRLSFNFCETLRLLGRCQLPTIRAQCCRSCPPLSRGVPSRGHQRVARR
Assay: TMT10 TAILS N-terminomics, SMC2 experiment (process replicates, trypsin/AspN digest)
Assay type: cell-based
Details: for logFC.mWT.over.Luc: SMC2_TAILS HC, log fold change of N-terminal peptide, Ad-mADAMTS7 WT over Luc
Method in brief: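 Full-length mouse ADAMTS7 (WT or E373Q mutant, C-terminal 3xFLAG) or luciferase was transduced via adenovirus, 50 MOI, into HCA-SMC (SMC1, SMC2) or HUVEC. SMC1: pooled media, technical triplicates 400 ug; SMC2: process triplicates 300 ug; HUVEC: process triplicates 200 ug, bFGF2 10 ng/ml.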

Substance	logFC.mWT.over.Luc	logFC.mWT.over.Lux (log fold change, ADAMTS7 WT over luciferase)
VIM_322 (QVQSLTCEV; listed as Homo sapiens)	1.01	–
VIM_433 (LVDTHSKR; listed as Homo sapiens)	–	2.91
ZSCAN4_25 (FQQSQGPAVQR; listed as Homo sapiens)	2.79	–
